Results taken from patent US20230272086A1 (CHIA TAI TIANQING PHARMACEUTICAL GROUP, published 2023).

T1: recombinant protein containing hST2 extracellular domain with mouse antibody heavy chain Fc tag (hST2-ECD-mFc) (human)
T1 construct: Used for SPR and for ELISA of chimeric and humanized antibodies; also called human ST2 antigen
T1 chain: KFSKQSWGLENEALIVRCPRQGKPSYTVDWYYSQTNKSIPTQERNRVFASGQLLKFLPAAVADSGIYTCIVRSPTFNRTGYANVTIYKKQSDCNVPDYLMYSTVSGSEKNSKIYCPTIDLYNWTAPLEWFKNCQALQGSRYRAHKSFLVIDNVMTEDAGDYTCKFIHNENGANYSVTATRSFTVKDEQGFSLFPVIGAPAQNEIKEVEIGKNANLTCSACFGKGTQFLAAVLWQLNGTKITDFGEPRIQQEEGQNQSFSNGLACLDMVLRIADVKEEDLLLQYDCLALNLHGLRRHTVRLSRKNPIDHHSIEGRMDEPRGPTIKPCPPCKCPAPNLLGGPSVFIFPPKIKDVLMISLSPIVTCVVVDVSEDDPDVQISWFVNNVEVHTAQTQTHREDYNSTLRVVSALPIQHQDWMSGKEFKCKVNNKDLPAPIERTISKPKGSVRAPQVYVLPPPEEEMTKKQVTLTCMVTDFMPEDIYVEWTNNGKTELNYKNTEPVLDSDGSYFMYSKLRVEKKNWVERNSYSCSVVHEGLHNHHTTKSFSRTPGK

T2: human ST2 (hST2, Interleukin-1 receptor-like 1 isoform A) on cells (human, UniProt Q01638 19-556)
T2 construct: the same id is used for hST2 naturally expressed on KU812 cells and on human CD4+ T cells; also called HEK293T-hST2-NFκB-Luciferase; KU812-NFκB-Luciferase
T2 sequence: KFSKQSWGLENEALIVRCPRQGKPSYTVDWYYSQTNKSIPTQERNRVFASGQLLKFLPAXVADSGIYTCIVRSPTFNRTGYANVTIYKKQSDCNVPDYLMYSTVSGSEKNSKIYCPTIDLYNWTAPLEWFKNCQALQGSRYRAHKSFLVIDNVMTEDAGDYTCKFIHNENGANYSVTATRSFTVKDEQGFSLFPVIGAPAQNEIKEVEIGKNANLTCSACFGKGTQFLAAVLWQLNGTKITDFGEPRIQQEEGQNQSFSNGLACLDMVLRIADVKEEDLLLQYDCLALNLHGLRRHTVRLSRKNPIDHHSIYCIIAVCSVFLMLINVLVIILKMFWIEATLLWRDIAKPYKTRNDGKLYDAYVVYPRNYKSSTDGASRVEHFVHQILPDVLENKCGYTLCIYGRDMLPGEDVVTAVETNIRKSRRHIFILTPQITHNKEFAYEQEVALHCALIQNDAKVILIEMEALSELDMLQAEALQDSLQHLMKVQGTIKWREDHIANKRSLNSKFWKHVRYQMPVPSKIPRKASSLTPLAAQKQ


How the values were obtained:
[1] = molecular target: T1, recombinant protein containing hST2 …; assay: ELISA, plate coated with hST2-ECD-mFc
Procedure: ST2 binding screening and analysis of antibodies were performed by ELISA using hST2-ECD-mFc (for assays of chimeric and humanized antibodies), hST2-ECD-hFc protein (for assays of hybridoma antibodies) and Cyno-ST2-his (Sino biological, 90915-C08H) as antigens. A high-adsorption 96-well plate (Costar, 9018) was coated with 2 µg/mL hST2-ECD-mFc or Cyno-ST2-his antigen at 100 µL/well and incubated overnight at 4° C. After the antigen not adsorbed was well washed off, the non-specific binding sites were blocked with a blocking buffer (PBS containing 2% bovine serum albumin). After the plate was washed three times with a washing buffer (PBS containing 0.05% (v/v) Tween 20), the anti-ST2 antibodies (serially diluted 3-fold from an initial concentration of 10 nM to 8 concentrations: 3.333 nM, 1.111 nM, 0.370 nM, 0.123 nM, 0.041 nM, 0.014 nM, 0.005 nM, and 0.002 nM) were added at 100 µL/well, and the plate was incubated at room temperature for 1 h. After the plate was washed with the washing buffer, a horseradish peroxidase (HRP)-conjugated secondary antibody was added, and the plate was incubated for another 60 min. After the plate was washed with the washing buffer, the substrate TMB solution (Thermo, 00-4201-56) was added at 100 µL/well, and the plate was incubated at room temperature for 2 min. A stop solution (2 N H₂SO₄) was added at 100 µL/well to terminate the reactions. Colorimetric signals were generated and read at 450 nm using a microplate reader (PE, Envision). The data were analyzed using GraphPad Prism5, and the EC₅₀ values were calculated.
The humanized antibodies hz31C81-1.1 (the amino acid sequence of the heavy chain set forth in SEQ ID NO: 75 and the amino acid sequence of the light chain set forth in SEQ ID NO: 81) and hz31C8-1.2 (the amino acid sequence of the heavy chain set forth in SEQ ID NO: 77 and the amino acid sequence of the light chain set forth in SEQ ID NO: 81) were subjected to affinity, binding, blocking and cell function analyses using the methods described in Example 4, Example 5, Example 6, Example 7, Example 8, Example 9 and Example 10.

[2] = molecular target: T2, human ST2 (hST2, Interleukin-1 …); assay: flow cytometry on HEK293T-hST2-NFκB-Luciferase cells
Procedure: 3 × 10⁵ HEK293T-hST2-NFκB-Luciferase or HEK293T-Cyno-ST2-NFκB-Luciferase cells were added to a 96-well culture plate. Serially diluted anti-ST2 antibodies (serially diluted 4-fold from an initial concentration of 667 nM to 8 concentrations in binding assays with the HEK293T-hST2-NFκB-Luciferase cells; serially diluted 4-fold from an initial concentration of 400 nM to 8 concentrations in binding assays with the HEK293T-Cyno-ST2-NFκB-Luciferase cells) were added to the cell suspensions. After the plate was incubated at room temperature for 60 min, the cells were washed 3 times with PBS. […] The cells were washed 3 times with PBS and resuspended in 100 µ1L of PBS, and then the fluorescence signals were analyzed and detected using a flow cytometer (BD, Accuri C6). The binding capacity of the anti-ST2 antibodies to hST2 and cyno-ST2 on the cell line surfaces was measured in terms of the mean fluorescence intensity (MFI) of staining. The data were analyzed using GraphPad Prism5, and the EC₅₀ values were calculated. The EC₅₀ values for the binding of the anti-ST2 chimeric antibodies to hST2 and Cyno-ST2 at the cellular level are shown in Table 8 and FIGS. 7-8.
The humanized antibodies hz31C81-1.1 (the amino acid sequence of the heavy chain set forth in SEQ ID NO: 75 and the amino acid sequence of the light chain set forth in SEQ ID NO: 81) and hz31C8-1.2 (the amino acid sequence of the heavy chain set forth in SEQ ID NO: 77 and the amino acid sequence of the light chain set forth in SEQ ID NO: 81) were subjected to affinity, binding, blocking and cell function analyses using the methods described in Example 4, Example 5, Example 6, Example 7, Example 8, Example 9 and Example 10. In the present disclosure, “hz” and “xi” denote humanized antibodies and chimeric antibodies, respectively; for example, “hz31C81-1.1” and “hz31C81-1.2” represent humanized 31C81-1.1 and 31C81-1.2 antibodies, and “xi31C8” represents a chimeric 31C8 antibody.

Binder | EC50 [1] [nM] | EC50 [2] [nM]
Humanized 31C8-1.1 (antibody, human IgG2, kappa, V domains shown, also called hz31C8-1.1; hz31C81-1.1) VH: EVQLVQSGAEVKKPGATVKISCKASGYIFIDSEMHWVQQAPGKGLEWMGAIDPETGDTVYAEKFQGRVTITADKSSSTAYMELSSLRSEDTAVYYCTGSTTDYYFAYWGQGTLVTVSS VL: DIQMTQSPSSLSASVGDRVTITCRSSKSLLHSNGIIYLYWYQQKPGKAPKLLIYQLSNLASGVPSRFSSSGSGTDFTLTISSLQPEDFATYYCAQNLELPFTFGQGTKVEIKR | 0.0879 | 0.384
RG6149 (antibody Ab2 in CN104334582, prepared in-house) (antibody, human IgG2, kappa, V domains shown, Control anti-ST2 antibody) VH: EVQLVQSGAEVKKPGESLKISCKGSGYSFTNYWIGWVRQMPGKGLEWMGIIYPGNSDTRFSPSFQGQVTISADKSITTAYLQWSSLKASDTAMYYCARHGTSSDYYGLDVWGQGTTVTVSS VL: not shown | 0.113 | 0.581

The remaining binders from weak to strong by EC50 [1], led by results:

EC50 [1] [nM] | EC50 [2] [nM] | Binder
0.127 | 0.676 | GSK3772847 (antibody STLM208 in CN104411333, prepared in-house) (antibody, human IgG2, kappa, V domains shown, Control anti-ST2 antibody) VH: EVQLLESGGGLVQPGGSLRLSCAASGFTFSIYDMIWVRQAPGKGLEWVSSIRGEGGGTYYADSVKGRFTISRDNSKNTLYLQMNSLRAEDTAVYYCARDPWSTEGSFFVLDYWGQGTLVTVSS VL: EIVLTQSPATLSLSPGERATLSCRASQSVDDDLAWYQQKPGQAPRLLIYDASNRATGIPARFSGSGSGTDFTLTISSLEPEDFAVYYCQQYITAPLTFGQGTKVEIKR
0.0937 | 0.468 | Humanized 31C8-1.2 (antibody, human IgG2, kappa, V domains shown, also called hz31C8-1.2; hz31C81-1.2) VH: QVQLVQSGAKVKKPGATVKISCKASGYIFIDSEMHWVQQAPGKGLEWMGAIDPETGDTVYAKKFKGRVTITADKSSSTAYMELSSLRSEDTAVYYCTGSTTDYYFAYWGQGTLVTVSS VL: DIQMTQSPSSLSASVGDRVTITCRSSKSLLHSNGIIYLYWYQQKPGKAPKLLIYQLSNLASGVPSRFSSSGSGTDFTLTISSLQPEDFATYYCAQNLELPFTFGQGTKVEIKR
0.0865 | 0.405 | Chimeric 31C8 (antibody, human IgG2, kappa, V domains shown, also called xi31C8) VH: QVQLQQSGPELVRPGASVTLSCKASGYIFIDSEMHWVKQTPVHGLEWIGAIDPETGDTVYNQKFKGKATLTADKSSSTASMELSSLTSEDSAVYYCTGSTTDYYFAYWGQGTTLTVSS VL: DIVMTQAAFSNPVTLGTSASISCRSSKSLLHSNGIIYLYWYLQKPGQSPQLLIYQMSNLASGVPDRFSSSGSGTDFTLRISRVEAEDVGVYYCAQNLELPFTFGSGTKLEIKR
